Results on nine molecules are retold here after patent publication US20250270343A1 (Alector, published 2025).

To fix the notation:
T1: soluble mouse GPNMB-Fc polypeptide (mouse IgG2A Fc) (mouse, UniProt Q99P91 23-502)
T1 construct: extracellular domain; bought (R&D System); also called moGPNMB-Fc; mGPNMB-Fc; not shown: Fc region of mouse IgG2A
T1 sequence (looked up): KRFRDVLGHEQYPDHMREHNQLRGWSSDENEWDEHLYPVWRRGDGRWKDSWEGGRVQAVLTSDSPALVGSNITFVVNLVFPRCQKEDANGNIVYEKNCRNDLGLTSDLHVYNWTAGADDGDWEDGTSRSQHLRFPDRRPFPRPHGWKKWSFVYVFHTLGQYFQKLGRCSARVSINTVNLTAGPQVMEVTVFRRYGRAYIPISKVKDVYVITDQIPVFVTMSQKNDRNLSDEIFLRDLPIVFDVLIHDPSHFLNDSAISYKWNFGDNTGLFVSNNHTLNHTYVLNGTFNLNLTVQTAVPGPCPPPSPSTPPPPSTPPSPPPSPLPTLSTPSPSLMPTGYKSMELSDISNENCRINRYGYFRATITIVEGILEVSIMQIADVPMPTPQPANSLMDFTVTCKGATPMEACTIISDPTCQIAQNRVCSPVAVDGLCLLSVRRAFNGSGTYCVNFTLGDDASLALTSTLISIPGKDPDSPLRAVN

T2: soluble cynomolgus GPNMB (recombinant extracellular domain) (cynomolgus, UniProt Q14956 23-499 (human entry), limits assumed)
T2 chain: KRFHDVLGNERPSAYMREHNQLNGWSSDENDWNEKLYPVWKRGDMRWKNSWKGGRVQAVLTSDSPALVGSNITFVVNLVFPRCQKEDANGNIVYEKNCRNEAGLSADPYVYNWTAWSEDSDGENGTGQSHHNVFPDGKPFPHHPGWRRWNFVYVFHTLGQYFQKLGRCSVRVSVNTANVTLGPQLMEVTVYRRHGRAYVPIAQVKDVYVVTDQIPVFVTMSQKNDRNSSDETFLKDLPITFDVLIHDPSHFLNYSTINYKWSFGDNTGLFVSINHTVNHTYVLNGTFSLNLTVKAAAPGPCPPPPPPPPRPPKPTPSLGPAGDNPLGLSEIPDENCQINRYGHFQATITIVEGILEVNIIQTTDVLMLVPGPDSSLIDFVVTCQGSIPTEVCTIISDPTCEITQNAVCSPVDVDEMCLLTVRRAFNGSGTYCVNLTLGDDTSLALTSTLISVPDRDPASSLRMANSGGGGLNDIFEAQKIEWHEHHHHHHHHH

T3: soluble human GPNMB (recombinant extracellular domain) (human, UniProt Q14956 23-498)
T3 construct: also called huGPNMB; recombinant human GPNMB extracellular domain; not shown: C-terminal polyhistidine or Avi-His tag
T3 sequence: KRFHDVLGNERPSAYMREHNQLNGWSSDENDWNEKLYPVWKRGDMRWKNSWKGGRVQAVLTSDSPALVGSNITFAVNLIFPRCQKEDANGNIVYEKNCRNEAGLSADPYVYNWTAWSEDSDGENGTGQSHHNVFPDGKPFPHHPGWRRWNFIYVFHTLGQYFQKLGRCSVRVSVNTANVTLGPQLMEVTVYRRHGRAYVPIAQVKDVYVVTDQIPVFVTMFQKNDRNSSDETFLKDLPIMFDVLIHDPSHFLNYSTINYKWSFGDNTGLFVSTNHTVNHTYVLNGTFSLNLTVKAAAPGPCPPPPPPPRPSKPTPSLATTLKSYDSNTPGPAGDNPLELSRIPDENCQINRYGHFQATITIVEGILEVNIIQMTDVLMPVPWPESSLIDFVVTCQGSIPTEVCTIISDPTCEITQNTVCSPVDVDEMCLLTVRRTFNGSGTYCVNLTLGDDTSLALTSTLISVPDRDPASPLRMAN

T4: soluble mouse GPNMB (recombinant extracellular domain) (mouse, UniProt Q99P91 23-502)
T4 construct: also called moGPNMB; not shown: C-terminal polyhistidine or Avi-His tag
T4 sequence: T1 sequence (looked up)

B1: anti-GPNMB antibody GPN-83 (antibody, V domains shown)
VH: QVQLQESGPGLVKPSETLSLTCTVSGISITTGNYRWSWIRQPPGKGLEWIGYIDYSGTITYNPSLKSRVTITRDTSKNQFSLELSSVTAADTAVYYCARDLTHWYFDVWGQGTLVTVSS
VL: DIVMTQSPDSLAVSLGERATINCKSSRSVDYYGIGFVNWYQQKPGQPPKLLIYATSIQGSGVPDRFSGSGSGTDFTLTISSLQAEDVAVYYCQQQKEVPPTFGGGTKVEIK
B2: anti-GPNMB antibody GPN-86 (antibody, V domains shown)
VH: B1 VH
VL: B1 VL with V37L, I57K
B3: anti-GPNMB antibody GPN-91 (antibody, V domains shown)
VH: B1 VH
VL: B1 VL with V37L, I57H, V98R
B4: anti-GPNMB antibody GPN-87 (antibody, V domains shown)
VH: B1 VH with F106Y
VL: B1 VL with V37L, I57K
B5: anti-GPNMB antibody GPN-85 (antibody, V domains shown)
VH: B1 VH with S67Q
VL: B1 VL with Y32F, V37L, I57H
B6: anti-GPNMB antibody GPN-89 (antibody, V domains shown)
VH: B1 VH with F106Y
VL: B1 VL with V37L, I57H
B7: anti-GPNMB antibody GPN-90 (antibody, V domains shown)
VH: B1 VH with S67Q
VL: B1 VL with V37L, I57H
B8: anti-GPNMB antibody GPN-88 (antibody, V domains shown)
VH: B1 VH
VL: B1 VL with V37L, I57H, E97H
B9: anti-GPNMB antibody GPN-84 (antibody, V domains shown)
VH: B1 VH with F106Y
VL: B1 VL

By IC50 is commonly meant the concentration needed to halve the response being measured. In general, Kd refers to the equilibrium constant for the complex coming apart. A word on the koff: it is the first-order rate constant of dissociation. For orientation: kon means the second-order rate constant of association.

Changes are numbered by the printed parent chain.

The first test has as its target T1, soluble mouse GPNMB-Fc polypeptide …. The test is described as follows: FACS, blocking of mGPNMB-Fc binding to SVEC cells. How it is done:
Purified full-length affinity matured, anti-GPNMB antibodies were evaluated for their ability to block binding of mouse GPNMB-Fc to SVEC cells to calculate the ligand blocking potency of each clone. Briefly, 2 μg/ml soluble mGPNMB-Fc (mouse IgG2A Fc) diluted in binding buffer was pre-complexed with increasing concentrations of anti-GPNMB antibody or human IgG1 isotype control in 96-well plates. Subsequently, 100,000 SVEC cells were added per well and incubated on ice for 30 minutes. Soluble GPNMB-Fc bound to cell surface was detected with fluorescent anti-mouse IgG2A secondary antibody and measured on FACSCanto. Curves were fit using nonlinear regression analysis with Graphpad Prism 6 software.
A general note: A flow cytometer gives signals particle by particle.
With B1, the IC50 is 1.49 nM. This counts as single-digit nanomolar.
On the same count and under the same terms, in the case of B2 it was 1.26 nM; in that of B3, 0.64 nM; in that of B4, 0.98 nM.
On the same count and under the same terms, the same measure for B5: 1.51 nM; for B6: 1.18 nM.
On the same count and under the same terms, in the case of B7 it was 1.43 nM.
Consider B8, for which the IC50 turned out to be 0.625 nM.
The same measure, in the same setting: the same measure for B9: 1.44 nM.

For a further test, the target named is T2, soluble cynomolgus GPNMB (recombinant …). The test is described as follows: SPR Biacore, IgG captured. The procedure: (§1) Binding kinetics of the humanized and affinity matured anti-GPNMB antibodies described above were evaluated using the Biacore T200 (Cytiva). Briefly, IgGs were diluted to 10 μg/mL and captured using a Protein A/G (ThermioFisher, #21186) surface on a CM5 chip that was prepared by amine coupling according to the instrument manufacturer's recommendations. The captured antibodies were tested for their ability to bind human, cynomolgus monkey, and mouse GPNMB recombinant proteins as follows.
(§2) Human, cynomolgus, and mouse GPNMB analytes were diluted in running buffer (HBS-EP+, Teknova, #8022, with 0.5 mg/ml BSA, MP Biomedicals LLC, #820451), to a concentration of 300 nM, then diluted 3-fold serially to 100 nM, 33 nM, and 11 nM. Each sample was injected for 2 minutes to allow association, followed by dissociation in buffer alone for 10 minutes. Each sample injection was followed by the regeneration of the chip with three 30-second injections of 10 mM glycine, pH 1.7. Fresh antibody was captured at the beginning of each cycle.
(§3) Data were analyzed using Biacore evaluation software to generate kinetic constants. The equilibrium dissociation constants (KD) were calculated from the fitted association and dissociation rate constants (k-on and k-off) for each of the anti-GPNMB antibodies.
Background: Surface plasmon resonance follows binding to a sensor surface in real time, without labels.
As to B1, the Kd worked out at 8.1 nM, the dissociation rate constant (koff) amounted to 0.0014 s⁻¹ and the kon worked out at 170000 M⁻¹ s⁻¹.
For B2, the dissociation constant (Kd) was determined as 5.5 nM, the koff was 0.0011 s⁻¹ and the kon is 190000 M⁻¹ s⁻¹.
For the molecule B3, the dissociation constant Kd was 3.6 nM, the koff came out at 0.00052 s⁻¹ and the kon turned out to be 150000 M⁻¹ s⁻¹.
The matching figures for B4: 6.2 nM, 0.0012 s⁻¹ and 190000 M⁻¹ s⁻¹.
Turning to B5, the equilibrium dissociation constant (Kd) is 1.4 nM, the koff came to 0.00021 s⁻¹ and the kon is 150000 M⁻¹ s⁻¹.
The matching figures for B6: 3.3 nM, 0.00055 s⁻¹ and 170000 M⁻¹ s⁻¹.
On to B7, for which the Kd was 3.2 nM, the koff amounted to 0.00051 s⁻¹ and the kon is 160000 M⁻¹ s⁻¹.
The like results for B8 were, in that order, 3.7 nM, 0.00061 s⁻¹ and 160000 M⁻¹ s⁻¹.
As to B9, the Kd worked out at 10.3 nM, the koff was determined as 0.0019 s⁻¹ and the kon came to 180000 M⁻¹ s⁻¹.

For another test, the target named is T3, soluble human GPNMB (recombinant …). The experiment in a line: SPR Biacore, IgG captured. The procedure:
as §1, §2, §3
In the case of B1, the Kd was found to be 7.5 nM, the koff came to 0.0016 s⁻¹ and the kon was determined as 210000 M⁻¹ s⁻¹.
The matching figures for B2: 4.5 nM, 0.0012 s⁻¹ and 260000 M⁻¹ s⁻¹.
The matching figures for B3: 3 nM, 0.00053 s⁻¹ and 180000 M⁻¹ s⁻¹.
With B4, the Kd turned out to be 5.4 nM, the koff was found to be 0.0013 s⁻¹ and the kon was determined as 250000 M⁻¹ s⁻¹.
The matching figures for B5: 1 nM, 0.00018 s⁻¹ and 170000 M⁻¹ s⁻¹.
The like results for B6 were, in that order, 2.9 nM, 0.00057 s⁻¹ and 200000 M⁻¹ s⁻¹.
For the molecule B7, the Kd amounted to 2.8 nM, the koff worked out at 0.00053 s⁻¹ and the kon is 190000 M⁻¹ s⁻¹.
As to B8, the Kd turned out to be 3.1 nM, the koff came to 0.00063 s⁻¹ and the kon was found to be 200000 M⁻¹ s⁻¹.
The like results for B9 were, in that order, 9.6 nM, 0.0021 s⁻¹ and 220000 M⁻¹ s⁻¹.

The target of another test is T4, soluble mouse GPNMB (recombinant …). The experiment in a line: SPR Biacore, IgG captured. The procedure:
as §1, §2, §3
Consider B1, for which the Kd is 1.5 nM, the koff is 0.00024 s⁻¹ and the kon was 160000 M⁻¹ s⁻¹.
B2: the Kd stood at 1.2 nM, the koff is 0.00023 s⁻¹ and the kon was found to be 190000 M⁻¹ s⁻¹.
The matching figures for B3: 1.1 nM, 0.00014 s⁻¹ and 140000 M⁻¹ s⁻¹.
The like results for B4 were, in that order, 1.5 nM, 0.00028 s⁻¹ and 190000 M⁻¹ s⁻¹.
The like results for B5 were, in that order, 0.5 nM, 7.4e-05 s⁻¹ and 140000 M⁻¹ s⁻¹.
Take B6: the Kd came to 0.8 nM, the koff is 0.00012 s⁻¹ and the kon came to 160000 M⁻¹ s⁻¹.
The matching figures for B7: 0.7 nM, 0.00011 s⁻¹ and 160000 M⁻¹ s⁻¹.
The matching figures for B8: 1.1 nM, 0.00017 s⁻¹ and 150000 M⁻¹ s⁻¹.
B9: the Kd was determined as 2.1 nM, the koff is 0.00034 s⁻¹ and the kon came to 160000 M⁻¹ s⁻¹.
